Experimental data taken from publication doi:10.1101/2021.03.15.435138.

Biological target: C-terminal hexahistidyl-tagged GluN3A subunit (UniProt Q9R1M7)
Assay: pull-down

Chain of C-terminal hexahistidyl-tagged GluN3A subunit (Q9R1M7 24-1135): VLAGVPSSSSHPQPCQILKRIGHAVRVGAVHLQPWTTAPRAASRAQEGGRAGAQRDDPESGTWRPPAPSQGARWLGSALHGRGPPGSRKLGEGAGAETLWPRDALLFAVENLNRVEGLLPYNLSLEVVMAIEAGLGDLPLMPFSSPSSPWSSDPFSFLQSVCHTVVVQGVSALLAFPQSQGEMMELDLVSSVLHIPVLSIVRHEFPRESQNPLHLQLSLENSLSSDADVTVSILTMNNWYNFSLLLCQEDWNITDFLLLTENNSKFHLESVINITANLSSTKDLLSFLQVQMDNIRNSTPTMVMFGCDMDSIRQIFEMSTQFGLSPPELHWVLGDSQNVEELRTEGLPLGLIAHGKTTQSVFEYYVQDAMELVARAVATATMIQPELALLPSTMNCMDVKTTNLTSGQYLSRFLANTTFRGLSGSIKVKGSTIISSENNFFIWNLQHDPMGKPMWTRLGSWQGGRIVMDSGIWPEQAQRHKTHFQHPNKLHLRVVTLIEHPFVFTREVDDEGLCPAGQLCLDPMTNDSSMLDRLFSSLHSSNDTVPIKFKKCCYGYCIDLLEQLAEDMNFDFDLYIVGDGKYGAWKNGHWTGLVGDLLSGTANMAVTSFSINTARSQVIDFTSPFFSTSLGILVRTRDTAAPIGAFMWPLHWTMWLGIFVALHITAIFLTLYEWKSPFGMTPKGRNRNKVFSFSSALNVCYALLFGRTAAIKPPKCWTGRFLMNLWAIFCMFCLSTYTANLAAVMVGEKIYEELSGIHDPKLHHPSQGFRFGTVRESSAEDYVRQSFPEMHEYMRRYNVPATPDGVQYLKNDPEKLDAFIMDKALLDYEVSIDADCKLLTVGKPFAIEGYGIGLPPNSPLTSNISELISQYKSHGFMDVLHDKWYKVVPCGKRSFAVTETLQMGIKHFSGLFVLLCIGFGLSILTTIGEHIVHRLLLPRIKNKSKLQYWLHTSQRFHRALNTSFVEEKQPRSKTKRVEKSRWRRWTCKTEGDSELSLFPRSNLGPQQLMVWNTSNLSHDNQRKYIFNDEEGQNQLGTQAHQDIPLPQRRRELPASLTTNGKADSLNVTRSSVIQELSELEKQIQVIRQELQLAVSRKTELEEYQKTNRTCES

Substance: GluN1-1a (splice variant 1a) NMDA receptor subunit, wild type (from UniProt P35439 19-938)
- stoichiometry N: 1

Substance: GluN1^1-802, M4-deleted GluN1 (from UniProt P35439 19-802) (domain or fragment)
- stoichiometry N: 1
